{"source": "paper PMC12955206", "molecular_target": "myeloperoxidase (MPO) (human, UniProt P05164 49-745)", "sequence (P05164 49-745)": "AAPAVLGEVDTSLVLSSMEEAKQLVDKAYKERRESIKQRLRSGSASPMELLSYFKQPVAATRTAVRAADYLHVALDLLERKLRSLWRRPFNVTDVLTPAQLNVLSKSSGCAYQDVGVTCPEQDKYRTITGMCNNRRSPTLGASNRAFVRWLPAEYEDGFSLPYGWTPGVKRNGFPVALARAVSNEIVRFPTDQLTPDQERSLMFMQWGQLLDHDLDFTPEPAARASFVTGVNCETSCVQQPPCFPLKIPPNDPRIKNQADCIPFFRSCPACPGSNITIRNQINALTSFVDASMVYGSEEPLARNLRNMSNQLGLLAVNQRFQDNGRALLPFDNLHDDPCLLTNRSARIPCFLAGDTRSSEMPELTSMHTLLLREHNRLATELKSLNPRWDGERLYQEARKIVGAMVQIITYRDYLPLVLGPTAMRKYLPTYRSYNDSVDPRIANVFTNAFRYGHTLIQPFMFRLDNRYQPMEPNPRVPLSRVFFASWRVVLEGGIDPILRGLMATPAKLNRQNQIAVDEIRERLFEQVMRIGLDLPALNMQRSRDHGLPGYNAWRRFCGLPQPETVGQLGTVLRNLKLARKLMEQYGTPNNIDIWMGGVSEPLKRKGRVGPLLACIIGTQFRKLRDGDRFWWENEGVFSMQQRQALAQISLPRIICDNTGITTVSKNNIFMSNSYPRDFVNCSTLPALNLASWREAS", "experiment": "fluorescence strand displacement", "data": [{"binder": "AptCy3/TBHQ2 duplex (MPO aptamer with trigger strand) (mixed, internal Cy3-dT at position 45 of the aptamer (Table S1)) DNA 1: CACCTAATACGACTCACTATAGCGGATCCGAAACGCTATTCGGATGGGGTTCCAGATACTAGAAAGAGCAA DNA 2: CATCCGAATAGCGTTTCGGATC", "values": [{"measurement": "binding result", "result": "binds"}]}]}
